Laboratory results from IntAct's records for PubMed 25117710.

B1: Protein C-ets-2 (Homo sapiens), P15036 (parent)
chain: MNDFGIKNMDQVAPVANSYRGTLKRQPAFDTFDGSLFAVFPSLNEEQTLQEVPTGLDSISHDSANCELPLLTPCSKAVMSQALKATFSGFKKEQRRLGIPKNPWLWSEQQVCQWLLWATNEFSLVNVNLQRFGMNGQMLCNLGKERFLELAPDFVGDILWEHLEQMIKENQEKTEDQYEENSHLTSVPHWINSNTLGFGTEQAPYGMQTQNYPKGGLLDSMCPASTPSVLSSEQEFQMFPKSRLSSVSVTYCSVSQDFPGSNLNLLTNNSGTPKDHDSPENGADSFESSDSLLQSWNSQSSLLDVQRVPSFESFEDDCSQSLCLNKPTMSFKDYIQERSDPVEQGKPVIPAAVLAGFTGSGPIQLWQFLLELLSDKSCQSFISWTGDGWEFKLADPDEVARRWGKRKNKPKMNYEKLSRGLRYYYDKNIIHKTSGKRYVYRFVCDLQNLLGFTPEELHAILGVQPDTED
B2: Protein C-ets-1 (Homo sapiens), P14921-1 (parent)
chain: MKAAVDLKPTLTIIKTEKVDLELFPSPDMECADVPLLTPSSKEMMSQALKATFSGFTKEQQRLGIPKDPRQWTETHVRDWVMWAVNEFSLKGVDFQKFCMNGAALCALGKDCFLELAPDFVGDILWEHLEILQKEDVKPYQVNGVNPAYPESRYTSDYFISYGIEHAQCVPPSEFSEPSFITESYQTLHPISSEELLSLKYENDYPSVILRDPLQTDTLQNDYFAIKQEVVTPDNMCMGRTSRGKLGGQDSFESIESYDSCDRLTQSWSSQSSFNSLQRVPSYDSFDSEDYPAALPNHKPKGTFKDYVRDRADLNKDKPVIPAAALAGYTGSGPIQLWQFLLELLTDKSCQSFISWTGDGWEFKLSDPDEVARRWGKRKNKPKMNYEKLSRGLRYYYDKNIIHKTAGKRYVYRFVCDLQSLLGYTPEELHAMLDVKPDADE

Variants of: B1
Settings: with cop1_human COP1, Q8NHY2
Target sequence in this assay (Q8NHY2 whole entry): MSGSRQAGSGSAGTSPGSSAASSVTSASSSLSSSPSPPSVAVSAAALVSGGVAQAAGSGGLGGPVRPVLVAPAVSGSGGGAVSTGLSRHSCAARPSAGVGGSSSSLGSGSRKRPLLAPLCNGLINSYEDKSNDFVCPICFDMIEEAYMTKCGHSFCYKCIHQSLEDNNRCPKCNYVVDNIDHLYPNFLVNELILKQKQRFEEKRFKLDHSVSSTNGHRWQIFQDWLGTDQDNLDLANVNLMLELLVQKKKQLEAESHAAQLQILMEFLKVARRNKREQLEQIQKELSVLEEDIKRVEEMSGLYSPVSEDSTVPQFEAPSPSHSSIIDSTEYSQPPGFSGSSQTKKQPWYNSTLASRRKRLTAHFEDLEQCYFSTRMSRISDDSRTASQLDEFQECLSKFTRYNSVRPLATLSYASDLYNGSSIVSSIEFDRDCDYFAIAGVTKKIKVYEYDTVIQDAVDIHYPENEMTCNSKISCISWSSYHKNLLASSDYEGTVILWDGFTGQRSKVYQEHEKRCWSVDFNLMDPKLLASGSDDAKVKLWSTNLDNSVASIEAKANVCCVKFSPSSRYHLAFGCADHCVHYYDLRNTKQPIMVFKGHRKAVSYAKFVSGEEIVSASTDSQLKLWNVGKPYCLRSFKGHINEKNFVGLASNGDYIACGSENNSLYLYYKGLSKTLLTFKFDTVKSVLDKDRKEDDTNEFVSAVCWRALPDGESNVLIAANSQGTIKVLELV

Q: For MNDFGIKNMDQVAPVANSYRGTLKRQPAFDTFDGSLFAVFPSLNEEQTLQEAATGLDSISHDSANCELPLLTPCSKAVMSQALKATFSGFKKEQRRLGIPKNPWLWSEQQVCQWLLWATNEFSLVNVNLQRFGMNGQMLCNLGKERFLELAPDFVGDILWEHLEQMIKENQEKTEDQYEENSHLTSVPHWINSNTLGFGTEQAPYGMQTQNYPKGGLLDSMCPASTPSVLSSEQEFQMFPKSRLSSVSVTYCSVSQDFPGSNLNLLTNNSGTPKDHDSPENGADSFESSDSLLQSWNSQSSLLDVQRVPSFESFEDDCSQSLCLNKPTMSFKDYIQERSDPVEQGKPVIPAAVLAGFTGSGPIQLWQFLLELLSDKSCQSFISWTGDGWEFKLADPDEVARRWGKRKNKPKMNYEKLSRGLRYYYDKNIIHKTSGKRYVYRFVCDLQNLLGFTPEELHAILGVQPDTED [V52A;P53A], which “effect of a mutation on the interaction” value is on record?
A: decreasing interaction strength

Q: For MNDFGIKNMDQVAPVANSYRGTLKRQPAFDTFDGSLFAVFPSLNEEQTLQEAATGLDSISHDSANCELPLLTPCSKAVMSQALKATFSGFKKEQRRLGIPKNPWLWSEQQVCQWLLWATNEFSLVNVNLQRFGMNGQMLCNLGKERFLELAPDFVGDILWEHLEQMIKENQEKTEDQYEENSHLTSVPHWINSNTLGFGTEQAPYGMQTQNYPKGGLLDSMCPASTPSVLSSEQEFQMFPKSRLSSVSVTYCSVSQDFPGSNLNLLTNNSGTPKDHDSPENGADSFESSDSLLQSWNSQSSLLDVQRAASFESFEDDCSQSLCLNKPTMSFKDYIQERSDPVEQGKPVIPAAVLAGFTGSGPIQLWQFLLELLSDKSCQSFISWTGDGWEFKLADPDEVARRWGKRKNKPKMNYEKLSRGLRYYYDKNIIHKTSGKRYVYRFVCDLQNLLGFTPEELHAILGVQPDTED [V52A;P53A;V308A;P309A], which “effect of a mutation on the interaction” value is on record?
A: disrupting interaction strength

Q: How did the “effect of a mutation on the interaction” value turn out when MNDFGIKNMDQVAPVANSYRGTLKRQPAFDTFDGSLFAVFPSLNEEQTLQEVPTGLDSISHDSANCELPLLTPCSKAVMSQALKATFSGFKKEQRRLGIPKNPWLWSEQQVCQWLLWATNEFSLVNVNLQRFGMNGQMLCNLGKERFLELAPDFVGDILWEHLEQMIKENQEKTEDQYEENSHLTSVPHWINSNTLGFGTEQAPYGMQTQNYPKGGLLDSMCPASTPSVLSSEQEFQMFPKSRLSSVSVTYCSVSQDFPGSNLNLLTNNSGTPKDHDSPENGADSFESSDSLLQSWNSQSSLLDVQRAASFESFEDDCSQSLCLNKPTMSFKDYIQERSDPVEQGKPVIPAAVLAGFTGSGPIQLWQFLLELLSDKSCQSFISWTGDGWEFKLADPDEVARRWGKRKNKPKMNYEKLSRGLRYYYDKNIIHKTSGKRYVYRFVCDLQNLLGFTPEELHAILGVQPDTED [V308A;P309A] was run?
A: decreasing interaction strength

Variants of: B2
Settings: with cop1_human COP1, Q8NHY2
Target sequence in this assay (Q8NHY2 whole entry): as the sequence (Q8NHY2 whole entry) above

Q: MKAAVDLKPTLTIIKTEKVDLELFPSPDMECADVPLLTPSSKEMMSQALKATFSGFTKEQQRLGIPKDPRQWTETHVRDWVMWAVNEFSLKGVDFQKFCMNGAALCALGKDCFLELAPDFVGDILWEHLEILQKEDVKPYQVNGVNPAYPESRYTSDYFISYGIEHAQCVPPSEFSEPSFITESYQTLHPISSEELLSLKYENDYPSVILRDPLQTDTLQNDYFAIKQEVVTPDNMCMGRTSRGKLGGQDSFESIESYDSCDRLTQSWSSQSSFNSLQRAASYDSFDSEDYPAALPNHKPKGTFKDYVRDRADLNKDKPVIPAAALAGYTGSGPIQLWQFLLELLTDKSCQSFISWTGDGWEFKLSDPDEVARRWGKRKNKPKMNYEKLSRGLRYYYDKNIIHKTAGKRYVYRFVCDLQSLLGYTPEELHAMLDVKPDADE [V280A;P281A] was tested. Which “effect of a mutation on the interaction” value did it give?
A: disrupting interaction strength

Variants of: B2
Settings: with cop1_human COP1, Q8NHY2
Remark: another data set of the same source
Target sequence in this assay (Q8NHY2 whole entry): as the sequence (Q8NHY2 whole entry) above

Q: How did the “effect of a mutation on the interaction” value turn out when MKAAVDLKPTLTIIKTEKVDLELFPSPDMECADVPLLTPSSKEMMSQALKATFSGFTKEQQRLGIPKDPRQWTETHVRDWVMWAVNEFSLKGVDFQKFCMNGAALCALGKDCFLELAPDFVGDILWEHLEILQKEDVKPYQVNGVNPAYPESRYTSDYFISYGIEHAQCVPPSEFSEPSFITESYQTLHPISSEELLSLKYENDYPSVILRDPLQTDTLQNDYFAIKQEVVTPDNMCMGRTSRGKLGGQDSFESIESYDSCDRLTQSWSSQSSFNALQRVPDFDSFDSEDYPAALPNHKPKGTFKDYVRDRADLNKDKPVIPAAALAGYTGSGPIQLWQFLLELLTDKSCQSFISWTGDGWEFKLSDPDEVARRWGKRKNKPKMNYEKLSRGLRYYYDKNIIHKTAGKRYVYRFVCDLQSLLGYTPEELHAMLDVKPDADE [S276A;S282D;Y283F] was run?
A: increasing interaction strength

Q: Which “effect of a mutation on the interaction” value does the source give for MKAAVDLKPTLTIIKTEKVDLELFPSPDMECADVPLLTPSSKEMMSQALKATFSGFTKEQQRLGIPKDPRQWTETHVRDWVMWAVNEFSLKGVDFQKFCMNGAALCALGKDCFLELAPDFVGDILWEHLEILQKEDVKPYQVNGVNPAYPESRYTSDYFISYGIEHAQCVPPSEFSEPSFITESYQTLHPISSEELLSLKYENDYPSVILRDPLQTDTLQNDYFAIKQEVVTPDNMCMGRTSRGKLGGQDSFESIESYDSCDRLTQSWSSQSSFNDLQRVPDFDSFDSEDYPAALPNHKPKGTFKDYVRDRADLNKDKPVIPAAALAGYTGSGPIQLWQFLLELLTDKSCQSFISWTGDGWEFKLSDPDEVARRWGKRKNKPKMNYEKLSRGLRYYYDKNIIHKTAGKRYVYRFVCDLQSLLGYTPEELHAMLDVKPDADE [S276D;S282D;Y283F] here?
A: increasing interaction strength

Q: MKAAVDLKPTLTIIKTEKVDLELFPSPDMECADVPLLTPSSKEMMSQALKATFSGFTKEQQRLGIPKDPRQWTETHVRDWVMWAVNEFSLKGVDFQKFCMNGAALCALGKDCFLELAPDFVGDILWEHLEILQKEDVKPYQVNGVNPAYPESRYTSDYFISYGIEHAQCVPPSEFSEPSFITESYQTLHPISSEELLSLKYENDYPSVILRDPLQTDTLQNDYFAIKQEVVTPDNMCMGRTSRGKLGGQDSFESIESYDSCDRLTQSWSSQSSFNDLQRVPSFDSFDSEDYPAALPNHKPKGTFKDYVRDRADLNKDKPVIPAAALAGYTGSGPIQLWQFLLELLTDKSCQSFISWTGDGWEFKLSDPDEVARRWGKRKNKPKMNYEKLSRGLRYYYDKNIIHKTAGKRYVYRFVCDLQSLLGYTPEELHAMLDVKPDADE [S276D;Y283F] was tested. Which “effect of a mutation on the interaction” value did it give?
A: increasing interaction strength

Q: For MKAAVDLKPTLTIIKTEKVDLELFPSPDMECADVPLLTPSSKEMMSQALKATFSGFTKEQQRLGIPKDPRQWTETHVRDWVMWAVNEFSLKGVDFQKFCMNGAALCALGKDCFLELAPDFVGDILWEHLEILQKEDVKPYQVNGVNPAYPESRYTSDYFISYGIEHAQCVPPSEFSEPSFITESYQTLHPISSEELLSLKYENDYPSVILRDPLQTDTLQNDYFAIKQEVVTPDNMCMGRTSRGKLGGQDSFESIESYDSCDRLTQSWSSQSSFNSLQRVPAFDSFDSEDYPAALPNHKPKGTFKDYVRDRADLNKDKPVIPAAALAGYTGSGPIQLWQFLLELLTDKSCQSFISWTGDGWEFKLSDPDEVARRWGKRKNKPKMNYEKLSRGLRYYYDKNIIHKTAGKRYVYRFVCDLQSLLGYTPEELHAMLDVKPDADE [S282A;Y283F], which “effect of a mutation on the interaction” value is on record?
A: increasing interaction strength

Q: Which “effect of a mutation on the interaction” value does the source give for MKAAVDLKPTLTIIKTEKVDLELFPSPDMECADVPLLTPSSKEMMSQALKATFSGFTKEQQRLGIPKDPRQWTETHVRDWVMWAVNEFSLKGVDFQKFCMNGAALCALGKDCFLELAPDFVGDILWEHLEILQKEDVKPYQVNGVNPAYPESRYTSDYFISYGIEHAQCVPPSEFSEPSFITESYQTLHPISSEELLSLKYENDYPSVILRDPLQTDTLQNDYFAIKQEVVTPDNMCMGRTSRGKLGGQDSFESIESYDSCDRLTQSWSSQSSFNSLQRVPDFDSFDSEDYPAALPNHKPKGTFKDYVRDRADLNKDKPVIPAAALAGYTGSGPIQLWQFLLELLTDKSCQSFISWTGDGWEFKLSDPDEVARRWGKRKNKPKMNYEKLSRGLRYYYDKNIIHKTAGKRYVYRFVCDLQSLLGYTPEELHAMLDVKPDADE [S282D;Y283F] here?
A: increasing interaction strength

Q: How did the “effect of a mutation on the interaction” value turn out when MKAAVDLKPTLTIIKTEKVDLELFPSPDMECADVPLLTPSSKEMMSQALKATFSGFTKEQQRLGIPKDPRQWTETHVRDWVMWAVNEFSLKGVDFQKFCMNGAALCALGKDCFLELAPDFVGDILWEHLEILQKEDVKPYQVNGVNPAYPESRYTSDYFISYGIEHAQCVPPSEFSEPSFITESYQTLHPISSEELLSLKYENDYPSVILRDPLQTDTLQNDYFAIKQEVVTPDNMCMGRTSRGKLGGQDSFESIESYDSCDRLTQSWSSQSSFNSLQRVPSFDSFDSEDYPAALPNHKPKGTFKDYVRDRADLNKDKPVIPAAALAGYTGSGPIQLWQFLLELLTDKSCQSFISWTGDGWEFKLSDPDEVARRWGKRKNKPKMNYEKLSRGLRYYYDKNIIHKTAGKRYVYRFVCDLQSLLGYTPEELHAMLDVKPDADE [Y283F] was run?
A: increasing interaction strength
